Residue numbers refer to the chain shown, from its start.

Results on 18 molecules are retold here after paper PMC3626704 (BMC Biochemistry, 2013).

First the molecules themselves.
B1: 25D9 bivalent scFv on phage (scFv, V domains shown)
VH: QVQLVQSGAEVRKPGASVKVSCKASGDTFSSYAISWVRQAPGQGLEWMGGIIPIFGTANYAQAFQGRVTITANESTSTAYMELSSLRSEDTAIYYCARDNPTLLGSDYWGAGTLVTVSS
VL: DIQMTQSPSTLSASIGDRVTITCRASEDILGRLAWYQQKPGKAPKLLIYRASRLASGAPSRFSGSGSGTDFTLTISSLQPDDFATYYCQQRANYPLTFGGGTKLEIK
B2: 25C12 bivalent scFv on phage (scFv, V domains shown)
VH: B1 VH
VL: B1 VL with L30S, G31S, R32V, R50N, Y94N, L96H
B3: 25A10 bivalent scFv on phage (scFv, V domains shown)
VH: B1 VH
VL: B1 VL with D28S, L30S, G31H, R32N, Y49S, R50N, R91Y, A92S
B4: 25A12 bivalent scFv on phage (scFv, V domains shown)
VH: B1 VH
VL: B1 VL with D28G, L30H, G31R, R32Y, R50H, L96Y
B5: 25D3 bivalent scFv on phage (scFv, V domains shown)
VH: B1 VH
VL: B1 VL with D28N, L30H, G31R, R50S, S52Y, R53S, R91N, A92S, N93D, L96H
B6: 25G8 bivalent scFv on phage (scFv, V domains shown)
VH: B1 VH
VL: B1 VL with D28S, L30G, G31R, R32S, R91S, A92S, N93T, Y94T
B7: 25F1 bivalent scFv on phage (scFv, V domains shown)
VH: B1 VH
VL: B1 VL with D28G, L30N, G31N, R32S, Y49S, R91Y, A92S, N93S, Y94T, L96H
B8: 25F10 bivalent scFv on phage (scFv, V domains shown)
VH: B1 VH
VL: B1 VL with D28G, L30H, G31N, Y49S, R50H, R53N, R91Y, A92S
B9: 25B6 bivalent scFv on phage (scFv, V domains shown)
VH: B1 VH
VL: B1 VL with D28N, L30R, G31S, R32G, R91Y, A92D, N93D, L96H
B10: 25D8 bivalent scFv on phage (scFv, V domains shown)
VH: B1 VH
VL: B1 VL with D28G, L30S, G31S, R32N, Y49S, S52Y, N93T
B11: 25C6 bivalent scFv on phage (scFv, V domains shown)
VH: B1 VH
VL: B1 VL with D28N, L30S, G31S, Y49S, R50N, S52Y, R53H, A92S, L96H
B12: 25D6 bivalent scFv on phage (scFv, V domains shown)
VH: B1 VH
VL: B1 VL with D28N, L30Y, G31S, R32N, Y49S, R50S, R91N, A92S, Y94N, L96H
B13: 25C10 bivalent scFv on phage (scFv, V domains shown)
VH: B1 VH
VL: B1 VL with D28N, L30Y, R32N, Y49S, A92Y, N93T
B14: D5 scFv, purified monovalent (scFv, V domains shown)
VH: B1 VH
VL: B1 VL with D28G, L30Y, G31H, R32W, R50K, R53S, R91Y, A92S
B15: 25C10 scFv, purified monovalent (scFv, V domains shown)
VH: B1 VH
VL: B1 VL with D28N, L30Y, R32N, Y49S, A92Y, N93T
B16: 25B6 scFv, purified monovalent (scFv, V domains shown)
VH: B1 VH
VL: B1 VL with D28N, L30R, G31S, R32G, R91Y, A92D, N93D, L96H
B17: 25A12 scFv, purified monovalent (scFv, V domains shown)
VH: B1 VH
VL: B1 VL with D28G, L30H, G31R, R32Y, R50H, L96Y
B18: 25A10 scFv, purified monovalent (scFv, V domains shown)
VH: B1 VH
VL: B1 VL with D28S, L30S, G31H, R32N, Y49S, R50N, R91Y, A92S

The target in one assay is T1, 5-Helix (HIV-1 group M subtype B, HXB2 (gp41 …, stabilised)).
T1 construct: also called designed protein based on HIV-1 gp41
Briefly: ELISA. As to conditions: one partner purified. On the technique in general: ELISA stands for enzyme-linked immunosorbent assay.
For the molecule B1, the “F_competitive (signal with 40 nM free 5-Helix / signal without)” value amounted to 0.2 fraction and the “phage ELISA signal OD450” value came to 3 OD450.

As to B2, the “F_competitive (signal with 40 nM free 5-Helix / signal without)” value was found to be 0.3 fraction and the “phage ELISA signal OD450” value was determined as 2.2 OD450.

In the case of B3, the “F_competitive (signal with 40 nM free 5-Helix / signal without)” value came to 0.1 fraction and the “phage ELISA signal OD450” value was found to be 3.2 OD450.

Turning to B4, the “F_competitive (signal with 40 nM free 5-Helix / signal without)” value amounted to 0.1 fraction and the “phage ELISA signal OD450” value came to 3.2 OD450.

B5: the “F_competitive (signal with 40 nM free 5-Helix / signal without)” value was found to be 0.1 fraction and the “phage ELISA signal OD450” value was 1.6 OD450.

For B6, the “F_competitive (signal with 40 nM free 5-Helix / signal without)” value is 0.1 fraction and the “phage ELISA signal OD450” value amounted to 2.1 OD450.

Take B7: the “F_competitive (signal with 40 nM free 5-Helix / signal without)” value stood at 0.1 fraction and the “phage ELISA signal OD450” value turned out to be 2.3 OD450.

As for B8, the “F_competitive (signal with 40 nM free 5-Helix / signal without)” value was found to be 0.1 fraction and the “phage ELISA signal OD450” value stood at 1.7 OD450.

B9: the “F_competitive (signal with 40 nM free 5-Helix / signal without)” value amounted to 0.1 fraction and the “phage ELISA signal OD450” value was 1.4 OD450.

Turning to B10, the “F_competitive (signal with 40 nM free 5-Helix / signal without)” value stood at 0.2 fraction and the “phage ELISA signal OD450” value is 3.2 OD450.

As for B11, the “F_competitive (signal with 40 nM free 5-Helix / signal without)” value was 0.2 fraction and the “phage ELISA signal OD450” value came out at 1.8 OD450.

Consider B12, for which the “F_competitive (signal with 40 nM free 5-Helix / signal without)” value was determined as 0.1 fraction and the “phage ELISA signal OD450” value was 1.6 OD450.

Consider B13, for which the “F_competitive (signal with 40 nM free 5-Helix / signal without)” value was 0.1 fraction and the “phage ELISA signal OD450” value amounted to 3.2 OD450.

The target of a further assay is T1, 5-Helix. Nature of the assay: ELISA. As to conditions: both partners purified.
Molecule B14 registered an IC50 of 7.3 nM.

As to B15, the IC50 came out at 56 nM.

For the molecule B16, the IC50 amounted to 0.6 nM.

The molecule B17 gave an IC50 of 34 nM.

B18 showed an IC50 of 5.4 nM.

The next assay addresses T2, 6-Helix-Fd (HIV-1 gp41 (HXB2-like, printed sequence), stabilised).
T2 construct: also called post-fusion six-helix bundle mimic
T2 chain: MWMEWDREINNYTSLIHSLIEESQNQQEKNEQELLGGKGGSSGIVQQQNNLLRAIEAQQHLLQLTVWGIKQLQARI
Briefly: ELISA. As to conditions: both partners purified.
Molecule B14 displayed an IC50 of 290 nM.

B16 displayed an IC50 of 94 nM.

B17: 280 nM corresponded to half-maximal inhibition (IC50).

B18 displayed an IC50 of roughly 500 nM.

In a further assay the target is T1, 5-Helix. Briefly: ELISA; competitive phage ELISA, on-phage bivalent scFv: binding to immobilised 5-Helix inhibited by free 5-Helix or free 6-Helix-Fd (concentrations for the trimer); apparent. As to conditions: one partner purified.
Take B1: the 50% inhibitory concentration (IC50) worked out at 1.7 nM.

For B2, the half-inhibitory concentration (IC50) worked out at 100 nM.

Consider B3, for which the IC50 was 1.6 nM.

For the molecule B4, the IC50 was 2.2 nM.

On to B5, for which the IC50 stood at 17 nM.

For B6, the IC50 turned out to be 7.2 nM.

Regarding B7, the IC50 came to 0.9 nM.

B8: the IC50 was determined as 0.2 nM.

In the case of B9, the 50% inhibitory concentration (IC50) is 0.3 nM.

Consider B10, for which the half-inhibitory concentration (IC50) amounted to 5.8 nM.

On to B11, for which the 50% inhibitory concentration (IC50) is 32 nM.

In the case of B12, the half-inhibitory concentration (IC50) turned out to be 0.5 nM.

Consider B13, for which the IC50 worked out at 1.8 nM.

The target in the next assay is T2, 6-Helix-Fd. The assay is described as above. As to conditions: one partner purified.
For the molecule B1, the 50% inhibitory concentration (IC50) came out at 230 nM.

Turning to B2, the IC50 was roughly 1000 nM.

Consider B3, for which the IC50 turned out to be 260 nM.

Regarding B4, the IC50 was 220 nM.

Consider B5, for which the IC50 was 170 nM.

Regarding B6, the IC50 was determined as 300 nM.

Regarding B7, the IC50 came out at 40 nM.

In the case of B8, the half-inhibitory concentration (IC50) was 22 nM.

B9: the IC50 amounted to 23 nM.

As to B10, the IC50 was roughly 3000 nM.

With B11, the half-maximal inhibitory concentration (IC50) was roughly 1000 nM.

With B12, the IC50 was roughly 80 nM.

Turning to B13, the concentration for half-maximal inhibition (IC50) is 28 nM.

Usually IC50 stands for the midpoint of a concentration-inhibition curve.
